Patent publication US20130287781A1 (GlaxoSmithKline, published 2013)

T1: peptide 7 (biotin-SGSG-VLPDIVMEAPLNSAVP) (human, N-terminal biotin)
T1 peptide: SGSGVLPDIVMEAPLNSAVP

T2: peptide 6 (biotin-SGSG-TPSPVLPDIVMEAPLN) (human, N-terminal biotin)
T2 peptide: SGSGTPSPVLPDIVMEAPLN

T3: native human Nogo-A of IMR32 neuroblastoma cells (intracellular) (human, UniProt Q9NQC3 1-1192)
T3 construct: whole, on cells; Detected inside permeabilised, fixed cells (ER-resident), not on the cell surface; also called intracellular Nogo-A; native Nogo-A
T3 sequence (looked up): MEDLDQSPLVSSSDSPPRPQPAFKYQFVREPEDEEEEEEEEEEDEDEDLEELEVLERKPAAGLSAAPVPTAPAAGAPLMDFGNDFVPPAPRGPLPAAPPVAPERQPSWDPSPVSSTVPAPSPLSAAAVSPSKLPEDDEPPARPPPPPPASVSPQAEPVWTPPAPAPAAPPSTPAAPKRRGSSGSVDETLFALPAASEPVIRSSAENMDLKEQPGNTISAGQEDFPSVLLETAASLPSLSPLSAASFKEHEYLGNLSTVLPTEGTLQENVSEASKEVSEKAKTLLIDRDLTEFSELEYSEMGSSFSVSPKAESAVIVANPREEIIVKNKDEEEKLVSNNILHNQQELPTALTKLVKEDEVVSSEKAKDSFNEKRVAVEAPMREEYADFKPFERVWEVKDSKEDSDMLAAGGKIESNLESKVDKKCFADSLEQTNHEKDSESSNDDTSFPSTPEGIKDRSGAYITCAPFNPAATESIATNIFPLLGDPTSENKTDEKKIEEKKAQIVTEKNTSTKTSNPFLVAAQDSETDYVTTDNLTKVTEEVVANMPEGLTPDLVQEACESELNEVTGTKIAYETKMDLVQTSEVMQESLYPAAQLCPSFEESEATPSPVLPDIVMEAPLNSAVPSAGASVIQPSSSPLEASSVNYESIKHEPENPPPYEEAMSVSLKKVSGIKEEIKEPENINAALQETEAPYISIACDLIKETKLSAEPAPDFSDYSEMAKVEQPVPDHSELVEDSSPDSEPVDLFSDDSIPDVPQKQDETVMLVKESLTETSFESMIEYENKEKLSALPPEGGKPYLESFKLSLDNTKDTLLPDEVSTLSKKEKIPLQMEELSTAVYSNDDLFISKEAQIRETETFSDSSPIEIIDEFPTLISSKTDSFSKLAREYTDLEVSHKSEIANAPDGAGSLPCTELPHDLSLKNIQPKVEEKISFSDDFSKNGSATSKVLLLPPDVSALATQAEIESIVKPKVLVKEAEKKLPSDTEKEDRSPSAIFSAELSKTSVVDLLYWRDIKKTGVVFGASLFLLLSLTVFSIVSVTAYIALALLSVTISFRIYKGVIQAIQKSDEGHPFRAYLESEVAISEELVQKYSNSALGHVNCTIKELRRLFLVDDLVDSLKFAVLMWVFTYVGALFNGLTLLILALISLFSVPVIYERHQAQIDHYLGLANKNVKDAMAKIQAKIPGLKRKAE

B1: 2A10 (murine monoclonal antibody) (antibody, V domains shown)
VH: QVQLQQPGTELVKPGASVKLSCKASGYTFTSYWMHWVKQRPGQGLEWIGNINPSNGGTNYNEKFKSKATLTVDKSSSTAYMQLSSLTSEDSAVYYCELGQGYWGQGTTLTVSS
VL: DIVITQDELSNPVTSGESVSISCRSSKSLLYKDGKTYLNWFLQRPGQSPQLLIYLMSTRASGVSDRFSGSGSGTDFTLEISRVKAEDVGVYYCQQLVEYPLTFGAGTKLELK
notes: Mouse monoclonal; also called parental antibody 2A10; murine donor antibody 2A10
B2: H6L13 variant with VH CDR3 WQGY (antibody, human IgG1, kappa, V domains shown)
VH: QVQLVQSGAEVKKPGASVKVSCKASGYTFTSYWMHWVRQAPGQGLEWIGNINPSNGGTNYNEKFKSRATMTRDTSTSTAYMELSSLRSEDTAVYYCELWQGYWGQGTLVTVSS
VL: DIVMTQSPLSLPVTLGQPASISCRSSKSLLYKDGKTYLNWFQQRPGQSPQLLIYLMSTRASGVPDRFSGGGSGTDFTLKISRVEAEDVGVYYCQQLVEYPLTFGQGTKLEIKR
notes: Single point variant of H6FL with L13FL
B3: H27L16 (antibody, human IgG1, kappa, V domains shown)
VH: QVQLVQSGAEVKKPGASVKVSCKASGYTFTSYWMHWVKQRPGQGLEWIGNINPSNGGTNYNEKFKSKATLTVDKSTSTAYMELSSLRSEDTAVYYCELMQGYWGQGTLVTVSS
VL: DIVMTQSPLSNPVTLGQPVSISCRSSKSLLYKDGKTYLNWFLQRPGQSPQLLIYLMSTRASGVPDRFSGGGSGTDFTLKISRVEAEDVGVYYCQQLVEYPLTFGQGTKLEIKR
notes: IgG1 (L235A, G237A) / kappa; CAMPATH-1H signal (1-19) left out; also called H27FL L16FL
B4: H20L16 (antibody, human IgG1, kappa, V domains shown)
VH: QVQLVQSGAEVKKPGASVKVSCKASGYTFTSYWMHWVRQAPGQGLEWIGNINPSNGGTNYNEKFKSKATMTRDTSTSTAYMELSSLRSEDTAVYYCELGQGYWGQGTLVTVSS
VL: DIVMTQSPLSNPVTLGQPVSISCRSSKSLLYKDGKTYLNWFLQRPGQSPQLLIYLMSTRASGVPDRFSGGGSGTDFTLKISRVEAEDVGVYYCQQLVEYPLTFGQGTKLEIKR
notes: IgG1 (L235A, G237A) / kappa; CAMPATH-1H signal (1-19) left out
B5: H26L13 (antibody, human IgG1, kappa, V domains shown)
VH: QVQLVQSGAEVKKPGASVKVSCKASGYTFTSYWMHWVRQAPGQGLEWIGNINPSNGGTNYNEKFKSRATMTRDTSTSTAYMELSSLRSEDTAVYYCELMQGYWGQGTLVTVSS
VL: DIVMTQSPLSLPVTLGQPASISCRSSKSLLYKDGKTYLNWFQQRPGQSPQLLIYLMSTRASGVPDRFSGGGSGTDFTLKISRVEAEDVGVYYCQQLVEYPLTFGQGTKLEIKR
notes: H26 FL is H6 FL with G95M (Kabat); IgG1 (L235A, G237A) / kappa; CAMPATH-1H signal (1-19) left out; also called H6(G95M)L13; H6L13 with VH CDR3 MQGY

Assays:
[1] = target: T1, peptide 7 (biotin-SGSG-VLPDIVMEAPLNSAVP); test: peptide ELISA: biotinylated 16-mer peptide on streptavidin, antibody at 5 ug/ml, kappa-chain peroxidase conjugate, Abs490
Experimental: (§1) Streptavidin at 5 μg/ml in sterile water was coated onto Nunc immunosorp plates (100 μl per well) at 37° C. overnight. The plates were rinsed 3 times with PBS containing 0.05% Tween (PBST) then blocked with 3% BSA in PBST at 4° C. overnight. The plates were washed 3 times with PBST. Peptides were then added to the wells at a concentration of approximately 10 μg/ml (diluted in 3% BSA in PBST) and incubated at room temperature for 1 hour. The plates were washed 3 times with PBST then incubated for 1 hour with anti-NOGO antibodies diluted to 5 μg/ml in 3% BSA in PBST. […] The plates were washed 3 times with PBST and then incubated with 100 μl OPD peroxidase substrate (Sigma) per well for 10 minutes. The colour reaction was stopped by the addition of 50 μl 3 molar H₂SO₄. Absorbance at 490 nm was measured using a plate reader.

[2] = target: T2, peptide 6 (biotin-SGSG-TPSPVLPDIVMEAPLN); test: as above
Experimental: as §1

[3] = target: T4, GST-human NOGO-A56 (human); test: direct ELISA on NOGO (GST-human NOGO-A56), CDR H3 variant of H6FL with L13FL, Abs490; coating concentration not given
T4 construct: Expressed in E. coli BL21 from pGEX-6P1 and purified on glutathione-sepharose; the GST tag is part of the protein in the assays; also called GST-Nogo-A 5+6; GST Nogo-A 5 + 6
T4 sequence (chain, as listed by the source limits assumed): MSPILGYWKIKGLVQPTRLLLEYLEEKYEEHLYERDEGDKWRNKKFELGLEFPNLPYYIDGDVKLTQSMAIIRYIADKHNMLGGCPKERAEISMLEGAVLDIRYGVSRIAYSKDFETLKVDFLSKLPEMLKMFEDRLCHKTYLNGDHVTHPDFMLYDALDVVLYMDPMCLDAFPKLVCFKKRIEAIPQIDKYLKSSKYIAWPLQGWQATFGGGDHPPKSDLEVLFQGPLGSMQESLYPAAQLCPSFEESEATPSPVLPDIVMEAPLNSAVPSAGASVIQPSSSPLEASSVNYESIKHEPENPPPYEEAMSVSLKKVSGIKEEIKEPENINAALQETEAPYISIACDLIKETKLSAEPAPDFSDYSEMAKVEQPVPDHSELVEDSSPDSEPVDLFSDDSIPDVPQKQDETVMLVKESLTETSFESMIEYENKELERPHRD

[4] = target: T4, GST-human NOGO-A56; test: SPR (Biacore) off-rate on NOGO chip, panel of H6FL CDR H3 variants with L13FL
[5] = target: T4, GST-human NOGO-A56; test: SPR (Biacore T100), antigen amine-coupled to CM5, antibody 0.125-8 nM; mean of six runs in duplicate (SD in brackets)
Text: In the first approach, the recombinant Nogo-A was coupled to the surface of the chip and anti-Nogo-A antibodies passed over this surface. In the second approach, Protein A was used to capture the antibody onto the surface of the chip over which the recombinant GST-human Nogo-A56 was passed.
The antigen was bound to the CM5 chip by primary amine coupling. […] The values show the mean and standard deviation (in brackets) of six independent runs carried out in duplicate. Each completed data set was analysed independently prior to the calculation of mean and standard deviation.

[6] = target: T4, GST-human NOGO-A56; test: SPR (Biacore), GST-human NOGO-A56 amine-coupled to CM5, antibody flowed over, 37 C
Experimental: (§2) GST-human NOGO-A56 was immobilised to a CM5 chip by primary amine coupling using the Biacore Wizard program designed for targeted immobilisation levels. The CM5 sensor surface was activated by passing a solution of 50 mM N-hydroxy-succinimide (NHS) and 200 mM N-ethyl-N′-dimethylaminopropyl carbonide (EDC). Then GST-human NOGO-A56 in sodium acetate buffer, pH5.0 or pH 4.5, was passed over the chip and immobilised. After immobilisation was complete any still activated esters were blocked by an injection of 1M ethanolamine hydrochloride, pH8.5.
(§3) The anti-NOGO mAbs were diluted down in HBS-EP (10 mM HEPES, pH 7.4, 150 mM NaCl, 3 mM EDTA, and 0.005% P-20 surfactant) for the BIAcore 3000 or HBS-EP+ (10 mM HEPES, pH 7.4, 150 mM NaCl, 3 mM EDTA, and 0.05% P-20 surfactant) in the case of the T100 and binding studies were carried out at range of defined antibody concentrations. All runs were referenced against a blanked sensor surface (one that had been activated and blocked as described earlier but had no addition of ligand). Analysis of binding was carried out using the BIAevaluation kinetic analysis software version 4.1 for the BIAcore 3000 and T100 kinetic analysis software version 1.0. […] Unless otherwise stated, the BIAcore experiments were performed at 25° C.

[7] = target: T4, GST-human NOGO-A56; test: direct ELISA, GST-human NOGO-A56 coated at 1.0 mcg/ml, purified antibody, OD490
Experimental: (§4) Wells were rinsed once with TBS+0.05% Tween (TBST) then incubated with 2% BSA in TBST to block non-specific binding sites at room temperature for 1 hour. Antibodies were diluted in TBST+2% BSA to 10 μg/ml and ½ dilutions made from this. Antibodies were added to wells in duplicate and incubated at room temperature for 1 hour. […] The wells were washed three times with TBST and then incubated with 100 μl OPD peroxidase substrate (Sigma) per well for 10 minutes. The colour reaction was stopped by the addition of 25 μl concentrated H₂SO₄. Optical density at 490 nm was measured using a plate reader. Background values read from wells with no antibody were subtracted.

[8] = target: T4, GST-human NOGO-A56; test: direct ELISA, human NOGO-A (GST-human NOGO-A56) coated at 1 ug/ml, Abs490
[9] = target: T4, GST-human NOGO-A56; test: direct ELISA, GST-Nogo-A 5+6 coated at 1.0 mcg/ml, anti-human IgG-HRP, Abs490
Experimental: as §4

[10] = target: T4, GST-human NOGO-A56; test: SPR (Biacore), GST-human NOGO-A56 amine-coupled to CM5, antibody flowed over, 25 C
Experimental: as §2, §3

[11] = target: T4, GST-human NOGO-A56; test: competition ELISA on coated GST-Nogo-A 5+6; competitor 2A10 pre-mixed, bound 2A10 detected with anti-mouse IgG-HRP
[12] = target: T3, native human Nogo-A of IMR32 …; test: flow cytometry on permeabilised, fixed IMR32 cells (intracellular Nogo-A), PE anti-human IgG, MFI
Experimental: In the second assay, the ability of the humanised antibodies to bind native Nogo-A was assessed using a human neuroblastoma cell line—IMR32. This cell line is characterised by high intracellular/low cell surface levels of Nogo-A protein. In an attempt to increase the binding signal, the assay was set-up to detect intracellular Nogo-A (ER-resident). IMR32 cells were permeabilised and fixed prior to staining with the anti-Nogo-A humanised antibodies. Binding of the antibodies to Nogo-A was detected using an anti-human IgG-PE labelled secondary (Sigma, #P8047).

[13] = target: T4, GST-human NOGO-A56; test: SPR (Biacore T100), reverse format: antibody captured by Protein A, GST Nogo-A 5+6 0.125-8 nM flowed over; mean (SD in brackets)
Text: Protein A was immobilised to approximately 4000RUs by primary amine and used to capture 200-300RUs of the sample antibodies. […] The values show the mean and standard deviation (in brackets) of three independent runs in duplicate. Each data set was independently analysed prior to the calculation of the mean and standard deviation.

[14] = target: T4, GST-human NOGO-A56; test: reverse format ELISA: antibody captured on anti-human IgG, GST-Nogo-A 5+6 detected with anti-GST-HRP; the x axis is the antibody concentration
[15] = target: T4, GST-human NOGO-A56; test: SPR (Biacore), GST-human NOGO-A56 amine-coupled to CM5, antibody flowed over, 25 C; remark: listed apart in the source
Experimental: as §2, §3

[16] = target: T5, Squirrel monkey NOGO (A56) plus GST tag (squirrel monkey); test: direct ELISA on GST-NOGO-A56 from squirrel monkey, Abs490
T5 construct: also called GST-NOGO-A56 from squirrel monkey
T5 sequence (chain, as listed by the source limits assumed): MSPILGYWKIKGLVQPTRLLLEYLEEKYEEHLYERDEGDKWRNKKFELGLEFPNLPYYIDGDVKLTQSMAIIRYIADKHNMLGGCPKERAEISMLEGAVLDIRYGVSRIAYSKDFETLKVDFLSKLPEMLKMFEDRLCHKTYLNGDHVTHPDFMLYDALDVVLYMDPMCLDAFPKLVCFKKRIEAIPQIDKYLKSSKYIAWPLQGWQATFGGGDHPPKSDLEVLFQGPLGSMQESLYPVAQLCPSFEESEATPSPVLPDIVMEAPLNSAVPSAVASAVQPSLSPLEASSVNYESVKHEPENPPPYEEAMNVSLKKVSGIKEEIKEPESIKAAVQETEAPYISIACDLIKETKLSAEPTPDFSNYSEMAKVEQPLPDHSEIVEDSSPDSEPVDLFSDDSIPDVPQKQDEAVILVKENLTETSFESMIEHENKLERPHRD

[17] = target: T4, GST-human NOGO-A56; test: direct ELISA, GST-human NOGO-A56 coated at 1.0 mcg/ml, purified antibody, OD490; remark: listed apart in the source
Experimental: as §4

[18] = target: T6, Cynomolgus monkey NOGO (A56) plus GST tag (cynomolgus monkey); test: direct ELISA on GST-NOGO-A56 from cynomolgus, Abs490
T6 construct: also called cynomolgus Nogo-A; GST-NOGO-A56 from cynomolgus
T6 sequence (chain, as listed by the source limits assumed): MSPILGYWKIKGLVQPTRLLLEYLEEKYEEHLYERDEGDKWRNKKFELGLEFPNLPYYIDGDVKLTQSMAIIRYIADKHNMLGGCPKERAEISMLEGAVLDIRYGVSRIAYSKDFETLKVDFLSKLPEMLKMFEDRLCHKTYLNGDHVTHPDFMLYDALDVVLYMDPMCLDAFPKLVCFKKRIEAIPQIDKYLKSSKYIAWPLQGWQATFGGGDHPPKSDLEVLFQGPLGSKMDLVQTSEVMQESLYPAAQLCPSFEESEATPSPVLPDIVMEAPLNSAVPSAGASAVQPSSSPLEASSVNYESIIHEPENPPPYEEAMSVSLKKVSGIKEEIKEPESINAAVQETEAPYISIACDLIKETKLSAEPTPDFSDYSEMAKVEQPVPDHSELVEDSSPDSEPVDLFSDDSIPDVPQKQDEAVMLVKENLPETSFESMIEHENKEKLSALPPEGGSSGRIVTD

[19] = target: T7, Rat NOGO (A56) plus GST tag (rat); test: direct ELISA on GST-NOGO-A56 from rat, Abs490
T7 construct: also called GST-NOGO-A56 from rat
T7 sequence (chain, as listed by the source limits assumed): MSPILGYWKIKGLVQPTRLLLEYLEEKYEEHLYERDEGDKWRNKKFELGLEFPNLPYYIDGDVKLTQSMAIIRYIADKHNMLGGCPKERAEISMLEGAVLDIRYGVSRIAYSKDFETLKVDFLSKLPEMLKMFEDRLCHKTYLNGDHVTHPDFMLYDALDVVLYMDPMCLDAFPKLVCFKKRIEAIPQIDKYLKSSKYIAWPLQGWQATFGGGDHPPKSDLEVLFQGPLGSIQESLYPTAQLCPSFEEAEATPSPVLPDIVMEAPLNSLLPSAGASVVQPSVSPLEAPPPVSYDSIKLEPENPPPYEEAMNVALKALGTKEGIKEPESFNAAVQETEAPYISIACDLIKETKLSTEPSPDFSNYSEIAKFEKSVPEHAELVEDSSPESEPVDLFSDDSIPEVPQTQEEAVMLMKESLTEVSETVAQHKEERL

[20] = target: T8, Marmoset NOGO (A56) plus GST tag (marmoset); test: direct ELISA on GST-NOGO-A56 from marmoset, Abs490
T8 construct: also called GST-NOGO-A56 from marmoset
T8 sequence (chain, as listed by the source limits assumed): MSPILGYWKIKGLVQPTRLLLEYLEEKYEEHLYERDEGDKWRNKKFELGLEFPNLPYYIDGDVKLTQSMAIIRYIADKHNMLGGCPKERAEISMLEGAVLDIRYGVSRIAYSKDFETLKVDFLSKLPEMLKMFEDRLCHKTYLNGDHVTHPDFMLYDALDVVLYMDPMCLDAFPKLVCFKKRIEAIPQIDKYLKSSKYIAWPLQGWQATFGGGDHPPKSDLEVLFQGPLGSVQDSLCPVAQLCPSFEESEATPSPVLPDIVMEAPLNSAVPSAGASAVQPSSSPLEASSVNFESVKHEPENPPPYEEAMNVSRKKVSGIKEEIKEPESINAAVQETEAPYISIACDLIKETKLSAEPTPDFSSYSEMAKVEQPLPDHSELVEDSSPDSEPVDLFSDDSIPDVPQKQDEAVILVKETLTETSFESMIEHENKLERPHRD

[21] = target: T4, GST-human NOGO-A56; test: SPR (Biacore), GST-human NOGO-A56 amine-coupled to CM5, antibody flowed over, 25 C; remark: listed apart in the source
Experimental: as §2, §3

[22] = target: T4, GST-human NOGO-A56; test: SPR (Biacore) off-rate ranking on GST-human NOGO-A56 chip, one experiment
Experimental: as §2
The GST-human NOGO-A56 chip was prepared as for kinetic analysis. Cell supernatants where taken directly from transient transfections of CHO-K1 cells. These were passed directly over the sensor surface and the interaction measured. A mock transfected cell supernatant was used for double referencing to remove any artefacts due to the tissue culture media. All runs were referenced against a blanked sensor surface (one that had been activated and blocked as described earlier but had no addition of ligand). Analysis of binding was carried out using the BIAevaluation kinetic analysis software version 4.1.

Binder	koff [4] [s⁻¹]	Kd [5] [pM]	Kd [6] [pM]	koff [6] [s⁻¹]	kon [6] [M⁻¹ s⁻¹]	EC50 (read off the curve) [7] [µg/mL]	EC50 (read off the curve) [8] [µg/mL]	EC50 (read off the curve) [9] [µg/mL]	Kd [10] [pM]	koff [10] [s⁻¹]	kon [10] [M⁻¹ s⁻¹]	binding result [12]	Kd [13] [pM]	EC50 (read off the curve) [14] [µg/mL]	Kd [15] [pM]	koff [15] [s⁻¹]	kon [15] [M⁻¹ s⁻¹]	EC50 (read off the curve) [17] [µg/mL]	also measured
B1																			binding result [1]: binds; binding result [2]: binds
B2	0.0198																		EC50 (read off the curve) [3]: ~0.1 µg/mL
B3		560	426	0.00306	7.18e+06	~0.06	~0.06	~0.04	380	0.0015	3.94e+06	binds	310	~0.1	194	0.00121	6.24e+06		IC50 (read off the curve) [11]: ~5 µg/mL
B4		1800	1510	0.0108	7.17e+06	~0.09		~0.1	1160	0.00542	4.69e+06	binds	310	~0.08				~0.1	EC50 (read off the curve) [16]: ~0.05 µg/mL; EC50 (read off the curve) [18]: ~0.09 µg/mL; EC50 (read off the curve) [19]: ~0.08 µg/mL; EC50 (read off the curve) [20]: ~0.07 µg/mL
B5	0.00485						~0.03								963	0.00311	3.23e+06	~0.1	Kd [21]: 870 pM; koff [21]: 0.00288 s⁻¹; kon [21]: 3.45e+06 M⁻¹ s⁻¹; koff [22]: 0.00431 s⁻¹
